Publication PMC10397247

T1: 4H2253-AA
T1 chain: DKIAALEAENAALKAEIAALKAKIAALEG

T2: 4H2274-AA
T2 chain: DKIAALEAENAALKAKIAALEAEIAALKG

T3: 4H2330-AA
T3 chain: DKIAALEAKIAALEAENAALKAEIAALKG

T4: 4H2389-AA
T4 chain: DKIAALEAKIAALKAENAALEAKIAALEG

T5: 4H2438-AA
T5 chain: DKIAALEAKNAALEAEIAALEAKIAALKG

T6: 4H2473-AA
T6 chain: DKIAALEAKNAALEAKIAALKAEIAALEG

T7: 4H2698-AA
T7 chain: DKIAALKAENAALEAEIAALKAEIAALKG

T8: 4H2865-AA
T8 chain: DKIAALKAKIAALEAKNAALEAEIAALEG

T9: 4H3009-AA
T9 chain: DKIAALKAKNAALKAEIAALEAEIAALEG

T10: 4H310-AA
T10 chain: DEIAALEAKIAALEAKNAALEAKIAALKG

T11: 4H3120-AA
T11 chain: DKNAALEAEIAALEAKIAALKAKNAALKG

T12: 4H3130-AA
T12 chain: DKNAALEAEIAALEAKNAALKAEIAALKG

T13: 4H3165-AA
T13 chain: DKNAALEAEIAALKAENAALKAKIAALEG

T14: 4H3381-AA
T14 chain: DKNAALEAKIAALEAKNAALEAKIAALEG

T15: 4H3395-AA
T15 chain: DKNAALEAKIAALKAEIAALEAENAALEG

T16: 4H3410-AA
T16 chain: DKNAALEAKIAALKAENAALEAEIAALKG

T17: 4H3590-AA
T17 chain: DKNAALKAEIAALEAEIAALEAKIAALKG

T18: 4H3697-AA
T18 chain: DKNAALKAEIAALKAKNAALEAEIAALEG

T19: 4H3753-AA
T19 chain: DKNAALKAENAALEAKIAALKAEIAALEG

T20: 4H3865-AA
T20 chain: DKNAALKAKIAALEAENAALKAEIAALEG

T21: 4H458-AA
T21 chain: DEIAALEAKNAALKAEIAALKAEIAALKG

T22: 4H485-AA
T22 chain: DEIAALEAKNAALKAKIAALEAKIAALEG

T23: 4H536-AA
T23 chain: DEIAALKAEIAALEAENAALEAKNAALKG

T24: 4H570-AA
T24 chain: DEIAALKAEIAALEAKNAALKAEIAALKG

T25: 4H710-AA
T25 chain: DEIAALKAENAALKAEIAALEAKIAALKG

T26: 4H745-AA
T26 chain: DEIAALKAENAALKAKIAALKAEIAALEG

T27: 4H797-AA
T27 chain: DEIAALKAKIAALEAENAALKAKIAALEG

T28: 4H850-AA
T28 chain: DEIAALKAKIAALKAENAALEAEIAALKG

T29: 4H891-AA
T29 chain: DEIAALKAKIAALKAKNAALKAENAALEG

T30: 4H909-AA
T30 chain: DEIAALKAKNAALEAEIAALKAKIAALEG

T31: 4H930-AA
T31 chain: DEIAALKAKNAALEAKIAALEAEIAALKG

T32: 4H94-AA
T32 chain: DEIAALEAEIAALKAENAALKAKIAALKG

T33: 4H_APH
T33 chain: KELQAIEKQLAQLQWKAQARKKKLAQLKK


Target: T1, 4H2253-AA
Assay: two-hybrid library CCmax;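 note: natural log of median RNA to DNA barcode read ratio; higher means stronger binding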
Settings: mean of both orientations

interaction score	Binder
-1.44	DENAALEAKIAALKAKIAALKAEIAALEG [4H1385-AA]

Target: T2, 4H2274-AA
Assay: two-hybrid library CCmax;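 note: natural log of median RNA to DNA barcode read ratio; higher means stronger binding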
Settings: mean of both orientations

interaction score	Binder
-0.953	DENAALEAKIAALKAKIAALKAEIAALEG [4H1385-AA]

Target: T3, 4H2330-AA
Assay: two-hybrid library CCmax;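 note: natural log of median RNA to DNA barcode read ratio; higher means stronger binding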
Settings: mean of both orientations

interaction score	Binder
-1.41	DENAALEAKIAALKAKIAALKAEIAALEG [4H1385-AA]

Target: T4, 4H2389-AA
Assay: two-hybrid library CCmax;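 note: natural log of median RNA to DNA barcode read ratio; higher means stronger binding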
Settings: mean of both orientations

interaction score	Binder
-1.15	DENAALEAKIAALKAKIAALKAEIAALEG [4H1385-AA]

Target: T5, 4H2438-AA
Assay: two-hybrid library CCmax;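 note: natural log of median RNA to DNA barcode read ratio; higher means stronger binding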
Settings: mean of both orientations

interaction score	Binder
1.55	DENAALEAKIAALKAKIAALKAEIAALEG [4H1385-AA]

Target: T6, 4H2473-AA
Assay: two-hybrid library CCmax;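 note: natural log of median RNA to DNA barcode read ratio; higher means stronger binding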
Settings: mean of both orientations

interaction score	Binder
-0.93	DENAALEAKIAALKAKIAALKAEIAALEG [4H1385-AA]

Target: T7, 4H2698-AA
Assay: two-hybrid library CCmax
Settings: mean of both orientations

interaction score	Binder
0.136	DENAALEAKIAALKAKIAALKAEIAALEG [4H1385-AA]

Target: T8, 4H2865-AA
Assay: two-hybrid library CCmax
Settings: mean of both orientations

interaction score	Binder
-0.751	DENAALEAKIAALKAKIAALKAEIAALEG [4H1385-AA]

Target: T9, 4H3009-AA
Assay: two-hybrid library CCmax
Settings: mean of both orientations

interaction score	Binder
1.33	DENAALEAKIAALKAKIAALKAEIAALEG [4H1385-AA]

Target: T10, 4H310-AA
Assay: two-hybrid library CCmax
Settings: mean of both orientations

interaction score	Binder
-0.553	DENAALEAKIAALKAKIAALKAEIAALEG [4H1385-AA]

Target: T11, 4H3120-AA
Assay: two-hybrid library CCmax
Settings: mean of both orientations

interaction score	Binder
0.706	DENAALEAKIAALKAKIAALKAEIAALEG [4H1385-AA]

Target: T12, 4H3130-AA
Assay: two-hybrid library CCmax
Settings: mean of both orientations

interaction score	Binder
-0.837	DENAALEAKIAALKAKIAALKAEIAALEG [4H1385-AA]

Target: T13, 4H3165-AA
Assay: two-hybrid library CCmax
Settings: not given

interaction score	Binder
-1.48	DENAALEAKIAALKAKIAALKAEIAALEG [4H1385-AA]

Target: T14, 4H3381-AA
Assay: two-hybrid library CCmax
Settings: mean of both orientations

interaction score	Binder
-1.28	DENAALEAKIAALKAKIAALKAEIAALEG [4H1385-AA]

Target: T15, 4H3395-AA
Assay: two-hybrid library CCmax
Settings: mean of both orientations

interaction score	Binder
0.689	DENAALEAKIAALKAKIAALKAEIAALEG [4H1385-AA]

Target: T16, 4H3410-AA
Assay: two-hybrid library CCmax
Settings: mean of both orientations

interaction score	Binder
-0.247	DENAALEAKIAALKAKIAALKAEIAALEG [4H1385-AA]

Target: T17, 4H3590-AA
Assay: two-hybrid library CCmax
Settings: mean of both orientations

interaction score	Binder
2.4	DENAALEAKIAALKAKIAALKAEIAALEG [4H1385-AA]

Target: T18, 4H3697-AA
Assay: two-hybrid library CCmax
Settings: mean of both orientations

interaction score	Binder
-0.69	DENAALEAKIAALKAKIAALKAEIAALEG [4H1385-AA]

Target: T19, 4H3753-AA
Assay: two-hybrid library CCmax
Settings: mean of both orientations

interaction score	Binder
-0.82	DENAALEAKIAALKAKIAALKAEIAALEG [4H1385-AA]

Target: T20, 4H3865-AA
Assay: two-hybrid library CCmax
Settings: mean of both orientations

interaction score	Binder
-1.52	DENAALEAKIAALKAKIAALKAEIAALEG [4H1385-AA]

Target: T21, 4H458-AA
Assay: two-hybrid library CCmax
Settings: mean of both orientations

interaction score	Binder
-0.706	DENAALEAKIAALKAKIAALKAEIAALEG [4H1385-AA]

Target: T22, 4H485-AA
Assay: two-hybrid library CCmax
Settings: mean of both orientations

interaction score	Binder
-0.799	DENAALEAKIAALKAKIAALKAEIAALEG [4H1385-AA]

Target: T23, 4H536-AA
Assay: two-hybrid library CCmax
Settings: mean of both orientations

interaction score	Binder
1.04	DENAALEAKIAALKAKIAALKAEIAALEG [4H1385-AA]

Target: T24, 4H570-AA
Assay: two-hybrid library CCmax
Settings: mean of both orientations

interaction score	Binder
-0.556	DENAALEAKIAALKAKIAALKAEIAALEG [4H1385-AA]

Target: T25, 4H710-AA
Assay: two-hybrid library CCmax
Settings: mean of both orientations

interaction score	Binder
-0.564	DENAALEAKIAALKAKIAALKAEIAALEG [4H1385-AA]

Target: T26, 4H745-AA
Assay: two-hybrid library CCmax
Settings: mean of both orientations

interaction score	Binder
-1.3	DENAALEAKIAALKAKIAALKAEIAALEG [4H1385-AA]

Target: T27, 4H797-AA
Assay: two-hybrid library CCmax
Settings: mean of both orientations

interaction score	Binder
-1.08	DENAALEAKIAALKAKIAALKAEIAALEG [4H1385-AA]

Target: T28, 4H850-AA
Assay: two-hybrid library CCmax
Settings: mean of both orientations

interaction score	Binder
-0.784	DENAALEAKIAALKAKIAALKAEIAALEG [4H1385-AA]

Target: T29, 4H891-AA
Assay: two-hybrid library CCmax
Settings: mean of both orientations

interaction score	Binder
-1.56	DENAALEAKIAALKAKIAALKAEIAALEG [4H1385-AA]

Target: T30, 4H909-AA
Assay: two-hybrid library CCmax
Settings: mean of both orientations

interaction score	Binder
-1.36	DENAALEAKIAALKAKIAALKAEIAALEG [4H1385-AA]

Target: T31, 4H930-AA
Assay: two-hybrid library CCmax
Settings: mean of both orientations

interaction score	Binder
-1.18	DENAALEAKIAALKAKIAALKAEIAALEG [4H1385-AA]

Target: T32, 4H94-AA
Assay: two-hybrid library CCmax
Settings: mean of both orientations

interaction score	Binder
-0.994	DENAALEAKIAALKAKIAALKAEIAALEG [4H1385-AA]

Target: T33, 4H_APH
Assay: two-hybrid library CCmax
Settings: mean of both orientations

interaction score	Binder
-1.13	DENAALEAKIAALKAKIAALKAEIAALEG [4H1385-AA]

Target: 4H_GCN4
Assay: two-hybrid library CCmax
Settings: not given

4H_GCN4, sequence (chain, as listed by the source): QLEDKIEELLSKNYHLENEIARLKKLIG

interaction score	Binder
-1.45	DENAALEAKIAALKAKIAALKAEIAALEG [4H1385-AA]

Target: GCN2_T
Assay: two-hybrid library CCmax
Settings: mean of both orientations

interaction score	Binder
-1.2	DENAALEAKIAALKAKIAALKAEIAALEG [4H1385-AA]
